According to US20140045754A1, “GLP-1 COMPOSITIONS” (priority 2011, published 2014):

Experiments:
[1] = optimisation of liraglutide:protamine molar ratios: free liraglutide and protamine in supernatant by liquid chromatography; conditions: pH 7,8; 0,11 molecule of protamine per molecule of liraglutide
Method: In each of 8 containers, 10% of the resulting suspension was transferred. Under vigorous stirring, a specific portion of a 18 mM Protamine Chloride solution was added.
The initial container received 0,10 mL of the 18 mM Protamine Chloride solution, followed by 0,2 mL to the second container; ending with addition of 0,8 mL to the final container (number 8). Water was added to each of the eight containers to achieve a total of 5,0 grams of suspension. After 1 hour storage, about 1 mL were withdrawn from each container and centrifuged for 10 minutes at high speed.

[2] = achievable concentration of protamine sulphate stock solution with NaCl; type: physicochemical; conditions: 21° C.
Method: In one embodiment, the stock solution of the polycationic compound is prepared with NaCl. […] This allows the storage and/or use of higher concentrations and lowers the volumes of polycationic compound stock solution needed. This makes much larger volume available for either the GLP-1 compound stock solution or the solution of metal salt. Thereby, it is easier to control the mixing process, involving the aqueous solution of GLP-1 compound and the stock solution of metal salt. As a result of this, the injectability of the final formulation is improved, especially after storage at elevated temperatures. For example, a 30-60 mg/mL protamine sulphate stock solution is achievable at 21° C. when adding sodium chloride corresponding to a concentration of 0,3M, and a 30-80 mg/mL protamine sulphate stock solution is achievable at 21° C. when adding sodium chloride corresponding to a concentration of 0,5M.

| composition stability and incorporation of protamine [1] | Compound | achievable stock solution concentration ([2]; sodium chloride 0,3M) [mg/mL] | achievable stock solution concentration ([2]; sodium chloride 0,5M) [mg/mL] |
| --- | --- | --- | --- |
| good composition stability | CCCCCCCCCCCCCCCC(=O)N[C@@H](CCC(=O)NCCCC[C@H](NC(=O)[C@H](C)NC(=O)[C@H](C)NC(=O)[C@H](CCC(N)=O)NC(=O)CNC(=O)[C@H](CCC(=O)O)NC(=O)[C@H](CC(C)C)NC(=O)[C@H](Cc1ccc(O)cc1)NC(=O)[C@H](CO)NC(=O)[C@H](CO)NC(=O)[C@@H](NC(=O)[C@H](CC(=O)O)NC(=O)[C@H](CO)NC(=O)[C@@H](NC(=O)[C@H](Cc1ccccc1)NC(=O)[C@@H](NC(=O)CNC(=O)[C@H](CCC(=O)O)NC(=O)[C@H](C)NC(=O)[C@@H](N)Cc1cnc[nH]1)[C@@H](C)O)[C@@H](C)O)C(C)C)C(=O)N[C@@H](CCC(=O)O)C(=O)N[C@@H](Cc1ccccc1)C(=O)N[C@H](C(=O)N[C@@H](C)C(=O)N[C@@H](Cc1c[nH]c2ccccc12)C(=O)N[C@@H](CC(C)C)C(=O)N[C@H](C(=O)N[C@@H](CCCNC(=N)N)C(=O)NCC(=O)N[C@@H](CCCNC(=N)N)C(=O)NCC(=O)O)C(C)C)[C@@H](C)CC)C(=O)O [liraglutide, N^ε26-[(4S)-4-carboxy-4-(hexadecanoylamino)butanoyl]-[Arg^34]-GLP-1-(7-37)-peptide] | – | – |
| – | protamine sulphate | 30 to 60 | 30 to 80 |
